Changes are numbered by the printed parent chain. Blank lines part the entries; values can stand above or below the binder they belong to.
Biological target: T1, human vascular endothelial growth factor receptor-2 Fc chimera (KDR-Fc) (human, UniProt P35968 20-764)
T1 construct: range 1-764; also called human VEGFR-2; not shown: human IgG1 Fc
Assay: radioactive equilibrium binding, 1 nM KDR-Fc, % of input
Procedure: To prepare ³⁵S-labeled binding proteins for analysis, mRNA was prepared as described above for RNA-protein fusion production but the linker ligation step was omitted. The mRNA was expressed using rabbit reticulocyte lysate translation kit (Ambion) in the presence of ³⁵S-labeled Met at 30° C. for 1 hour. Expressed protein was purified on M2-agarose Flag beads (Sigma) as described above. This procedure produced the encoded protein without the nucleic acid tail. In a direct binding assay, VEGF-R2-Fc fusions in concentrations ranging from 0 to 200 nM were added to a constant concentration of the purified protein (0.2 or 0.5 nM) and incubated at 30° C. for 1 hour in buffer B. The receptor-binder complexes were captured using Protein A magnetic beads for another 10 minutes at room temperature using a Kingfisher™ The beads were washed with six reaction volumes of buffer B. The protein was eluted from the beads with 100 μL of 0.1 M KOH. 50 μL of the reaction mixture and elution were dried onto a LumaPlate-96 (Packard) and the amount of ³⁵S on the plate was measured using a TopCount NXT instrument (Packard). The amount of fibronectin-based scaffold protein bound to the target was estimated as a percent of radioactivity eluted from Protein A magnetic beads compare to radioactivity in the reaction mixture. Nonspecific binding of fibronectin-based scaffold proteins to the beads was determined by measuring binding in the absence of KDR-Fc and represented less than 1-2% of the input. Specific binding was obtained through subtraction of nonspecific binding from total binding. Data was analyzed using the GraphPad Prizm software (GraphPad Software, Inc, San Diego, Calif.), fitted using a one site, non-linear binding equation.

T1 sequence (P35968 20-764 limits assumed, change not shown, form in doubt): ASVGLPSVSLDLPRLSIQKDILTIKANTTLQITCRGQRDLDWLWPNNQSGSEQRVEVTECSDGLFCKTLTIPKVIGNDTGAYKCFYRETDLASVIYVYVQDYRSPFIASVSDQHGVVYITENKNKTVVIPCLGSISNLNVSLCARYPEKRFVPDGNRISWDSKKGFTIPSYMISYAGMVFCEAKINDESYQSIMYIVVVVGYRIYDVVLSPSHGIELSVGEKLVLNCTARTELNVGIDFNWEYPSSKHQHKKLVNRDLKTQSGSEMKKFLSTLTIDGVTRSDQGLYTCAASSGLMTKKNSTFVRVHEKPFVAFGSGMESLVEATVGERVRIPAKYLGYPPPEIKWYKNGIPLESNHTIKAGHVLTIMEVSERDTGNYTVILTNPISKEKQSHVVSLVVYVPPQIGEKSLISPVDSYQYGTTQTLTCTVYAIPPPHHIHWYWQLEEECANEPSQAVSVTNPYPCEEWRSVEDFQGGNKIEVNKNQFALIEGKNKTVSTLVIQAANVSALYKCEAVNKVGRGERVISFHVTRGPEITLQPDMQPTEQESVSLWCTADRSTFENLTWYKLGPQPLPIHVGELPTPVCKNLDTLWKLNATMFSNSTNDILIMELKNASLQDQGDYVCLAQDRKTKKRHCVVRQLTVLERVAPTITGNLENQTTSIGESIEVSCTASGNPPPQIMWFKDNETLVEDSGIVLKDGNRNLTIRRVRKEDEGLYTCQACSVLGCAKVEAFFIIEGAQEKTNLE

B1: 1′DelE2 PR4 (designed binder)
chain: EVVAATPTSLLISWRHPHFPTRYYRITYGETGGNSPVQEFTVPLQPPTATISGLKPGVDYTITVYAVTVGQNDHELLTPISINYRT
Binding to 1 nM KDR, %: 16%

B5: 2′Del B5 PR4 (designed binder)
chain: B1 chain with V69A, Q71R, N72H, L77I, T78I
Binding to 1 nM KDR, %: 33%

B6: 3B4 PR3 (designed binder)
chain: B1 chain with D73E
Binding to 1 nM KDR, %: 17%

B7: 3A3 PR3 (designed binder)
chain: B1 chain with V69L, G70A, Q71Y, D73G, H74R, L76I, L77I
Binding to 1 nM KDR, %: 23%

B11: 1′DelA2 PR4 (designed binder)
chain: B1 chain with G70A, D73G, E75Q, L77F
Binding to 1 nM KDR, %: 23%

B15: 2′DelH9 PR4 (designed binder)
chain: B1 chain with Q71W, N72S, D73G, L77F, T78V
Binding to 1 nM KDR, %: 20%

B16: 1′DelH5 PR4 (designed binder)
chain: B1 chain with G70A, H74R, L77F
Binding to 1 nM KDR, %: 17%

B17: 2′Del H12 PR4 (designed binder)
chain: B1 chain with V69A, Q71G, D73G
Binding to 1 nM KDR, %: 24%

B23: 2′Del C5 PR4 (designed binder)
chain: B1 chain with V69P, Q71H, L77M, T78V
Binding to 1 nM KDR, %: 26%

B25: 2′Del F8 PR4 (designed binder)
chain: B1 chain with V69A, Q71P, N72G, D73A
Binding to 1 nM KDR, %: 42%

B26: 2′Del C8 PR4 (designed binder)
chain: B1 chain with V69T, G70A, Q71H, D73G
Binding to 1 nM KDR, %: 15%

B28: 2′Del D10 PR4 (designed binder)
chain: B1 chain with V69L, G70A, Q71D, D73A, H74R
Binding to 1 nM KDR, %: 34%

B29: 2′Del D5 PR4 (designed binder)
chain: B1 chain with G70A, Q71W, E75M, L77M
Binding to 1 nM KDR, %: 18%

B33: 2′Del A11 PR4 (designed binder)
chain: B1 chain with V69E, G70D, Q71I, N72R, D73V, H74L, E75W, L77N, P79T
Binding to 1 nM KDR, %: 16%

B35: 2′Del E3 PR4 (designed binder)
chain: B1 chain with V69L, Q71P, N72Y, D73E
Binding to 1 nM KDR, %: 33%

B36: 2′Del H5 PR4 (designed binder)
chain: B1 chain with V69L, Q71K, N72D, D73V, H74R
Binding to 1 nM KDR, %: 34%

B37: 2′DelB7 PR4 (designed binder)
chain: B1 chain with Q71Y, D73N, H74R
Binding to 1 nM KDR, %: 32%

B38: 1′DelH12 PR4 (designed binder)
chain: B1 chain with G70A, D73E, H74R, L77F
Binding to 1 nM KDR, %: 18%

B39: 2′Del B3 PR4 (designed binder)
chain: B1 chain with V69D, G70A, Q71P, D73G, H74R, L77M, T78V
Binding to 1 nM KDR, %: 17%

B40: 2′DelG5 PR4 (designed binder)
chain: B1 chain with D73N
Binding to 1 nM KDR, %: 19%

B41: 2′Del F11 PR4 (designed binder)
chain: B1 chain with V69M, H74K, L77I
Binding to 1 nM KDR, %: 27%

B45: 2′Del H6 PR4 (designed binder)
chain: B1 chain with V69T, Q71H, N72H, L77I, T78I
Binding to 1 nM KDR, %: 28%

B46: 2′Del C6 PR4 (designed binder)
chain: B1 chain with V69M, Q71F, N72M, D73A, L77M, T78V
Binding to 1 nM KDR, %: 34%

B48: 1′DelF3 PR4 (designed binder)
chain: B1 chain with V69M, G70A, E75K, L77F
Binding to 1 nM KDR, %: 16%

B52: 2′Del F7 PR4 (designed binder)
chain: B1 chain with V69L, Q71L, N72R, H74R, L77F, T78V
Binding to 1 nM KDR, %: 38%

B54: 2′Del D1 PR4 (designed binder)
chain: B1 chain with V69L, G70E, H74R, E75V
Binding to 1 nM KDR, %: 28%

The next lines start with the values.

Binding to 1 nM KDR, %: 36%
B2: 1′Del G10 PR4 (designed binder)
chain: B1 chain with V69M, G70A, D73G, E75K, L77M

Binding to 1 nM KDR, %: 17%
B3: 1′DelD5 PR4 (designed binder)
chain: B1 chain with D73H, L77F

Binding to 1 nM KDR, %: 22%
B4: 2′Del F6 PR4 (designed binder)
chain: B1 chain with V69L, Q71W, L77Y, T78I

Binding to 1 nM KDR, %: 20%
B8: 2′Del F1 PR4 (designed binder)
chain: B1 chain with V69R, G70D, N72Y, D73E

Binding to 1 nM KDR, %: 34%
B9: 2′Del C11 PR4 (designed binder)
chain: B1 chain with V69A, Q71L, D73E, T78I

Binding to 1 nM KDR, %: 30%
B10: 2′DelH4 PR4 (designed binder)
chain: B1 chain with Q71P, D73E, H74R, E75M, L77M

Binding to 1 nM KDR, %: 23%
B12: 3A2 PR3 (designed binder)
chain: B1 chain with V69W, G70S, D73N, H74R, L77F

Binding to 1 nM KDR, %: 31%
B13: 2′Del B4 PR4 (designed binder)
chain: B1 chain with V69S, Q71H, D73G, L76V, L77M

Binding to 1 nM KDR, %: 19%
B14: 2′DelC7 PR4 (designed binder)
chain: B1 chain with V69W, G70D, D73G, E75V

Binding to 1 nM KDR, %: 32%
B18: 2′Del C1 PR4 (designed binder)
chain: B1 chain with V69A, Q71L, N72D, D73E, T78I

Binding to 1 nM KDR, %: 29%
B19: 2′Del B2 PR4 (designed binder)
chain: B1 chain with V69T, Q71W, D73G, H74N, L77F

Binding to 1 nM KDR, %: 22%
B20: 1′DelE7 PR4 (designed binder)
chain: B1 chain with G70A, D73G, L77F

Binding to 1 nM KDR, %: 17%
B21: 1′DelH10 PR4 (designed binder)
chain: B1 chain with V69F, G70A

Binding to 1 nM KDR, %: 19%
B22: 2′Del E5 PR4 (designed binder)
chain: B1 chain with V69E, Q71L, L77I, T78I

Binding to 1 nM KDR, %: 38%
B24: 2′Del D3 PR4 (designed binder)
chain: B1 chain with V69S, Q71L, H74R, E75V, L77F, T78I

Binding to 1 nM KDR, %: 33%
B27: 2′Del G9 PR4 (designed binder)
chain: B1 chain with G70E, D73G, H74R, L77I, T78I

Binding to 1 nM KDR, %: 24%
B30: 1′DelE6 PR4 (designed binder)
chain: B1 chain with V69L, G70A, H74R

Binding to 1 nM KDR, %: 17%
B31: 1′DelD2 PR4 (designed binder)
chain: B1 chain with G70A, Q71K

Binding to 1 nM KDR, %: 20%
B32: 3B5 PR3 (designed binder)
chain: B1 chain with V69F, D73G, E75A

Binding to 1 nM KDR, %: 29%
B34: 2′DelC3 PR4 (designed binder)
chain: B1 chain with V69W, G70A, D73G, H74R

Binding to 1 nM KDR, %: 20%
B42: 2′DelA5 PR4 (designed binder)
chain: B1 chain with V69W, G70N, D73G, H74Q, L77F

Binding to 1 nM KDR, %: 14%
B43: 1′DelA1 PR4 (designed binder)
chain: B1 chain with G70A

Binding to 1 nM KDR, %: 22%
B44: 2′Del G11 PR4 (designed binder)
chain: B1 chain with V69G, N72M, D73N, H74R, E75V, L77M

Binding to 1 nM KDR, %: 43%
B47: 2′Del E6 PR4 (designed binder)
chain: B1 chain with V69M, Q71K, D73G

Binding to 1 nM KDR, %: 16%
B49: 1′DelD1 PR4 (designed binder)
chain: B1 chain with G70T

Binding to 1 nM KDR, %: 22%
B50: 2′Del F5 PR4 (designed binder)
chain: B1 chain with V69L, G70V, Q71H, H74R

Binding to 1 nM KDR, %: 34%
B51: 2′DelE4 PR4 (designed binder)
chain: B1 chain with G70H, Q71W, D73G, L77M

Binding to 1 nM KDR, %: 17%
B53: 2′Del A2 PR4 (designed binder)
chain: B1 chain with V69G, Q71R, D73G, E75T

— patent US20120283184A1 (published 2012)
